According to US10894036B2, “Use of marizomib for the treatment of central nervous system (CNS) cancers” (Celgene International II Sàrl, priority 2016, dated 2021):

Test: Phase 1/2 MRZ + BEV and MRZ monotherapy in recurrent G4 MG: adverse events, DLT
Settings: MRZ+BEV
Procedure: The clinical trial was a Phase 1, dose-escalation (3+3 design) followed by dose-expansion at recommended Phase 2 Dose (RP2D).
The drugs were infused on 28-Day Cycles. Tumor response is assessed every other cycle by RANO criteria.
The safety data will be presented in individual listings and summary tables, including frequency tables for adverse events and frequency and shift tables for laboratory variables. The safety population will be all subjects who received at least one dose of either study drug in Phase 1 or MRZ in Phase 2.

bevacizumab [reference compound]
Ear Infection: # pts, related to BEV (12 Sep. 2016): 0
Epistaxis: # pts, related to BEV (12 Sep. 2016): 7
Falls: # pts, related to BEV (12 Sep. 2016): 0
Fatigue: # pts, related to BEV (12 Sep. 2016): 0
Fracture of Femur: # pts, related to BEV (12 Sep. 2016): 0
Hallucination: # pts, related to BEV (12 Sep. 2016): 0
Headache: # pts, related to BEV (12 Sep. 2016): 1
Hemiparesis: # pts, related to BEV (12 Sep. 2016): 0
Hyperglycemia: # pts, related to BEV (12 Sep. 2016): 0
Hypertension: # pts, related to BEV (12 Sep. 2016): 13
Hypokalemia: # pts, related to BEV (12 Sep. 2016): 0
Hyponatremia: # pts, related to BEV (12 Sep. 2016): 0
Hypotension: # pts, related to BEV (12 Sep. 2016): 0
Infusion Site Pain: # pts, related to BEV (12 Sep. 2016): 0
Insomnia: # pts, related to BEV (12 Sep. 2016): 1
Lymphocyte Count Decreased: # pts, related to BEV (12 Sep. 2016): 0
Muscular Weakness: # pts, related to BEV (12 Sep. 2016): 0
Nausea: # pts, related to BEV (12 Sep. 2016): 0
Optic Nerve Disorder: # pts, related to BEV (12 Sep. 2016): 1
Pyramidal Tract Syndrome: # pts, related to BEV (12 Sep. 2016): 0
Tumor Metastasis: # pts, related to BEV (12 Sep. 2016): 0
Vision Blurred: # pts, related to BEV (12 Sep. 2016): 0
Vomiting: # pts, related to BEV (12 Sep. 2016): 0
Anaemia: # events related to BEV (17 May 2016): 0
Aphasia: # events related to BEV (17 May 2016): 0
Appendicitis Perforated: # events related to BEV (17 May 2016): 0
Asthenia: # events related to BEV (17 May 2016): 0
Ataxia: # events related to BEV (17 May 2016): 0
Confusional State: # events related to BEV (17 May 2016): 0
Constipation: # events related to BEV (17 May 2016): 0
Convulsion: # events related to BEV (17 May 2016): 0
Delusion: # events related to BEV (17 May 2016): 0
Diarrhoea: # events related to BEV (17 May 2016): 0
Dizziness: # events related to BEV (17 May 2016): 0
Dysarthria: # events related to BEV (17 May 2016): 0
Dysphagia: # events related to BEV (17 May 2016): 0
Dysphonia: # events related to BEV (17 May 2016): 10
Dyspnoea: # events related to BEV (17 May 2016): 0
Ear Infection: # events related to BEV (17 May 2016): 0
Embolism: # events related to BEV (17 May 2016): 1
Epistaxis: # events related to BEV (17 May 2016): 8
Fatigue: # events related to BEV (17 May 2016): 0
Hallucination: # events related to BEV (17 May 2016): 0
Hemiparesis: # events related to BEV (17 May 2016): 0
Hyperglycemia: # events related to BEV (17 May 2016): 0
Hypokalemia: # events related to BEV (17 May 2016): 0
Hypotension: # events related to BEV (17 May 2016): 0
Insomnia: # events related to BEV (17 May 2016): 0
Lymphocyte Count Decreased: # events related to BEV (17 May 2016): 0
Muscular Weakness: # events related to BEV (17 May 2016): 0
Nausea: # events related to BEV (17 May 2016): 0
Pyramidal Tract Syndrome: # events related to BEV (17 May 2016): 0
Vomiting: # events related to BEV (17 May 2016): 0
Anaemia: # patients, AE related to labelled agent (BEV, MRZ, Both) (36 pts, as of 12 Sep. 2016): 0
Anxiety: # patients, AE related to labelled agent (BEV, MRZ, Both) (36 pts, as of 12 Sep. 2016): 0
Aphasia: # patients, AE related to labelled agent (BEV, MRZ, Both) (36 pts, as of 12 Sep. 2016): 0
Appendicitis Perforated: # patients, AE related to labelled agent (BEV, MRZ, Both) (36 pts, as of 12 Sep. 2016): 0
Asthenia: # patients, AE related to labelled agent (BEV, MRZ, Both) (36 pts, as of 12 Sep. 2016): 0
Ataxia: # patients, AE related to labelled agent (BEV, MRZ, Both) (36 pts, as of 12 Sep. 2016): 0
Confusional State: # patients, AE related to labelled agent (BEV, MRZ, Both) (36 pts, as of 12 Sep. 2016): 0
Constipation: # patients, AE related to labelled agent (BEV, MRZ, Both) (36 pts, as of 12 Sep. 2016): 0
Convulsion: # patients, AE related to labelled agent (BEV, MRZ, Both) (36 pts, as of 12 Sep. 2016): 0
Delusion: # patients, AE related to labelled agent (BEV, MRZ, Both) (36 pts, as of 12 Sep. 2016): 0
Depressed Level of Consciousness: # patients, AE related to labelled agent (BEV, MRZ, Both) (36 pts, as of 12 Sep. 2016): 0
Diarrhoea: # patients, AE related to labelled agent (BEV, MRZ, Both) (36 pts, as of 12 Sep. 2016): 0
Dizziness: # patients, AE related to labelled agent (BEV, MRZ, Both) (36 pts, as of 12 Sep. 2016): 0
Dysarthria: # patients, AE related to labelled agent (BEV, MRZ, Both) (36 pts, as of 12 Sep. 2016): 0
Dysphagia: # patients, AE related to labelled agent (BEV, MRZ, Both) (36 pts, as of 12 Sep. 2016): 0
Dysphonia: # patients, AE related to labelled agent (BEV, MRZ, Both) (36 pts, as of 12 Sep. 2016): 10
Dyspnoea: # patients, AE related to labelled agent (BEV, MRZ, Both) (36 pts, as of 12 Sep. 2016): 0
Ear Infection: # patients, AE related to labelled agent (BEV, MRZ, Both) (36 pts, as of 12 Sep. 2016): 0
Epistaxis: # patients, AE related to labelled agent (BEV, MRZ, Both) (36 pts, as of 12 Sep. 2016): 7
Falls: # patients, AE related to labelled agent (BEV, MRZ, Both) (36 pts, as of 12 Sep. 2016): 0
Fatigue: # patients, AE related to labelled agent (BEV, MRZ, Both) (36 pts, as of 12 Sep. 2016): 0
Fracture of Femur: # patients, AE related to labelled agent (BEV, MRZ, Both) (36 pts, as of 12 Sep. 2016): 0
Hallucination: # patients, AE related to labelled agent (BEV, MRZ, Both) (36 pts, as of 12 Sep. 2016): 0
Headache: # patients, AE related to labelled agent (BEV, MRZ, Both) (36 pts, as of 12 Sep. 2016): 1
Hemiparesis: # patients, AE related to labelled agent (BEV, MRZ, Both) (36 pts, as of 12 Sep. 2016): 0
Hyperglycemia: # patients, AE related to labelled agent (BEV, MRZ, Both) (36 pts, as of 12 Sep. 2016): 0
Hypertension: # patients, AE related to labelled agent (BEV, MRZ, Both) (36 pts, as of 12 Sep. 2016): 13
Hypokalemia: # patients, AE related to labelled agent (BEV, MRZ, Both) (36 pts, as of 12 Sep. 2016): 0
Hyponatremia: # patients, AE related to labelled agent (BEV, MRZ, Both) (36 pts, as of 12 Sep. 2016): 0
Hypotension: # patients, AE related to labelled agent (BEV, MRZ, Both) (36 pts, as of 12 Sep. 2016): 0
Infusion Site Pain: # patients, AE related to labelled agent (BEV, MRZ, Both) (36 pts, as of 12 Sep. 2016): 0
Insomnia: # patients, AE related to labelled agent (BEV, MRZ, Both) (36 pts, as of 12 Sep. 2016): 1
Lymphocyte Count Decreased: # patients, AE related to labelled agent (BEV, MRZ, Both) (36 pts, as of 12 Sep. 2016): 0
Muscular Weakness: # patients, AE related to labelled agent (BEV, MRZ, Both) (36 pts, as of 12 Sep. 2016): 0
Nausea: # patients, AE related to labelled agent (BEV, MRZ, Both) (36 pts, as of 12 Sep. 2016): 0
Optic Nerve Disorder: # patients, AE related to labelled agent (BEV, MRZ, Both) (36 pts, as of 12 Sep. 2016): 1
Pyramidal Tract Syndrome: # patients, AE related to labelled agent (BEV, MRZ, Both) (36 pts, as of 12 Sep. 2016): 0
Tumor Metastasis: # patients, AE related to labelled agent (BEV, MRZ, Both) (36 pts, as of 12 Sep. 2016): 0
Vision Blurred: # patients, AE related to labelled agent (BEV, MRZ, Both) (36 pts, as of 12 Sep. 2016): 0
Vomiting: # patients, AE related to labelled agent (BEV, MRZ, Both) (36 pts, as of 12 Sep. 2016): 0
